Measurements: publication PMC5480393 (Cell, 2017)
Read-outs that look alike come from different tables or passages of the source.

B1: VR3 (red abalone VERL repeat 3 without the interdomain linker) (domain or fragment)
chain: DWDVYCSQDESIPAKFISRLVTSKDQALEKTEINCSNGLVPITQEFGINMMLIQYTRNELLDSPGMCVFWGPYSVPKNDTVVLYTVTARLKWSEGPPTNLSIQCYMPKSPVAPK
B2: mMBP-VR3 (mammalianized maltose-binding protein fusion of VERL repeat 3) (domain or fragment)
chain: B1 chain

Key:
[1] = target: the molecule itself; test: crystal structure
[2] = target: the molecule itself; test: crystal structure; remark: listed apart in the source

Protein | binding result [1] | binding result [2]
B1 | binds | –
B2 | – | binds
